Values of other authors in publication PMC3218432.

Target: Asp85 (UniProt position 98, WARYADWLFTT)

**Q.** Which pKa does the source give for “Bacteriorhodopsin (Halobacterium salinarum (not stated in the article; described as archaeal))” here?
**A.** 2.3
